Experimental data: article PMC10119312, “Structural insights into RNase J that plays an essential role in Mycobacterium tuberculosis RNA metabolism” (Nature Communications, 2023)

How the values were obtained:
SEC = target: the molecule itself; test: SEC
Mtb-RNase J 1-375/D85A = target: T1, Mtb-RNase J 1-375/D85A (Mycobacterium tuberculosis H37Rv, UniProt P9WGZ9 1-375, D85A); test: EMSA; 0.5 uM RNA; binding abolished; conditions: protein: recombinant; tags: N-terminal 6xHis-SUMO, removed by ULP1; single strand
T1 sequence: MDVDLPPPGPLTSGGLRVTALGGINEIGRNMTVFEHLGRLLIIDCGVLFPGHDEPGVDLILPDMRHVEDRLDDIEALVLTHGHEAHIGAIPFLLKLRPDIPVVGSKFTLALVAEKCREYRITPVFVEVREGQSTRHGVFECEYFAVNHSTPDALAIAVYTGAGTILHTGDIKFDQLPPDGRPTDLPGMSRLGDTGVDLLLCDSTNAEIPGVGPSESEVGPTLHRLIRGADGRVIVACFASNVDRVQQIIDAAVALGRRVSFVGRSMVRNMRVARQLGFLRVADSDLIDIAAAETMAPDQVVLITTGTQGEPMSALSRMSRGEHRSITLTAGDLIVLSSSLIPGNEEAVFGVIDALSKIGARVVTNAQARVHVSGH

[1] = target: T2, Mtb-RNase J D85A (catalytically inactive) (Mycobacterium tuberculosis H37Rv, UniProt P9WGZ9 1-558, D85A); test: EMSA; conditions: protein: recombinant; tags: N-terminal 6xHis-SUMO, removed by ULP1; chain copies: 2; label: 5'-FAM; single strand
T2 sequence: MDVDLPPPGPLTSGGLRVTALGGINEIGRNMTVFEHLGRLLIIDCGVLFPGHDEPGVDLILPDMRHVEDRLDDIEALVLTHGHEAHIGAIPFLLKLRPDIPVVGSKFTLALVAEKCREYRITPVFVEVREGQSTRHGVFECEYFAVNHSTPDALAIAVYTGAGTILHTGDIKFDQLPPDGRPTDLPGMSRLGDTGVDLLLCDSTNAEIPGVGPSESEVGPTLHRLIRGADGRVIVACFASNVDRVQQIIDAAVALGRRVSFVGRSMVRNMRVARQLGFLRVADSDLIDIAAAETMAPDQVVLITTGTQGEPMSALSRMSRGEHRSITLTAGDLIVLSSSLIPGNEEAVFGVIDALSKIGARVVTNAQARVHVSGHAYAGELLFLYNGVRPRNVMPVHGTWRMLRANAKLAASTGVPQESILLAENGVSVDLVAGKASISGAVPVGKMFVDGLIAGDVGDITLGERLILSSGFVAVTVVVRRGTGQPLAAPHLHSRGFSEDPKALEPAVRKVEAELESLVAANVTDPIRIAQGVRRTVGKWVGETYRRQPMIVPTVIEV

crystal structure = target: the molecule itself; test: crystal structure
[2] = target: T2, Mtb-RNase J D85A (catalytically …); test: X-ray crystal structure; conditions: protein: recombinant; tags: N-terminal 6xHis-SUMO, removed by ULP1; chain copies: 2; single strand

B1: Mtb-RNase J truncated mutant 1-470 (domain or fragment)
chain: MDVDLPPPGPLTSGGLRVTALGGINEIGRNMTVFEHLGRLLIIDCGVLFPGHDEPGVDLILPDMRHVEDRLDDIEALVLTHGHEDHIGAIPFLLKLRPDIPVVGSKFTLALVAEKCREYRITPVFVEVREGQSTRHGVFECEYFAVNHSTPDALAIAVYTGAGTILHTGDIKFDQLPPDGRPTDLPGMSRLGDTGVDLLLCDSTNAEIPGVGPSESEVGPTLHRLIRGADGRVIVACFASNVDRVQQIIDAAVALGRRVSFVGRSMVRNMRVARQLGFLRVADSDLIDIAAAETMAPDQVVLITTGTQGEPMSALSRMSRGEHRSITLTAGDLIVLSSSLIPGNEEAVFGVIDALSKIGARVVTNAQARVHVSGHAYAGELLFLYNGVRPRNVMPVHGTWRMLRANAKLAASTGVPQESILLAENGVSVDLVAGKASISGAVPVGKMFVDGLIAGDVGDITLGERLILSS
notes: also called C-terminal truncation (1–470); C-terminal domain-depletion protein (1-470); not shown: 6xHis-sumo, N-terminal, cleaved
- stoichiometry N (SEC): 2

B2: 20-nt RNA (called poly(U) in legends; Methods print a mixed sequence) (ssRNA)
RNA: UUCCGUUUAUUCAUACUUCA
- binding result (Mtb-RNase J 1-375/D85A): no binding

B3: 9-nt poly(A) RNA (ssRNA)
RNA: AAAAAAAAA
- binding result [1]: binds

B4: Mtb-RNase J (D85A), catalytically inactive mutant (enzyme)
chain: T2 sequence
notes: also called Mtb-RNase J D85A mutant; Mtb-RNase J/ssRNA (in complex with poly(A) ssRNA); not shown: 6xHis-sumo, N-terminal, cleaved
- stoichiometry N (crystal structure): 2

B5: 7-nt poly(A) ssRNA (ssRNA)
RNA: AAAAAAA
- binding result [2]: binds

B6: Mtb-RNase J truncated mutant 1-450 (domain or fragment)
chain: MDVDLPPPGPLTSGGLRVTALGGINEIGRNMTVFEHLGRLLIIDCGVLFPGHDEPGVDLILPDMRHVEDRLDDIEALVLTHGHEDHIGAIPFLLKLRPDIPVVGSKFTLALVAEKCREYRITPVFVEVREGQSTRHGVFECEYFAVNHSTPDALAIAVYTGAGTILHTGDIKFDQLPPDGRPTDLPGMSRLGDTGVDLLLCDSTNAEIPGVGPSESEVGPTLHRLIRGADGRVIVACFASNVDRVQQIIDAAVALGRRVSFVGRSMVRNMRVARQLGFLRVADSDLIDIAAAETMAPDQVVLITTGTQGEPMSALSRMSRGEHRSITLTAGDLIVLSSSLIPGNEEAVFGVIDALSKIGARVVTNAQARVHVSGHAYAGELLFLYNGVRPRNVMPVHGTWRMLRANAKLAASTGVPQESILLAENGVSVDLVAGKASISGAVPVGKMFVD
notes: also called truncated protein (1–450); not shown: 6xHis-sumo, N-terminal, cleaved
- stoichiometry N (SEC): 2
